Laboratory results published in a protein production outcome set (Wang et al. 2014).

Experiment: label from the status in PepcDB records

Sequence | protein production
ISDQAETPMFNIGSAVPRGELVLAMEKIGKLLQERGGSVVIRGHTDGRQFKGEANDNWRLSMDRAHSAYYMLVRGGLSEERVKQVSGFADRRLQVPSNPLADANRRIEILLEADRG | failed
MGKDAKAGGKGKGKQASGSEEAPSKGKGKAGKAADGLGTCTYVKARHVLCEKQGKINEAYKKLQDGWLSNGDKVPPAEFAKIAAEYSECPSGKKGGDLGWFPRGKMAGPFQDVAFNTPVGVTSAPFKSTHGYHIILSEGRKN | failed
MESTKSNDIPILRNVSDSFSDHYGKYLQRCGIFVPKDGDSSGPDAYVVFHNGQTRYVVAFSFTFYHKTEFSKRDIEKEAEQFFQEVISVLNDGSPSSVQLCFQFVVVCTRYDRSVVFSSEEQNIVEDASYLVTEHSAGSTLNESRRSCLQLVVVSQRNLERFLGRENFDILRKIGKASREEFRKDFSVWCKTVFESMSDEYVSPLEAKPFNVTLRVARNIRPRTNEENRMQMEGFQTAMQVEEGNTRGEQRVAASSSLSSSFDWNTFLREYCGLSEEDVAYCLPKVEDIDMDELPAVTKEILRDLGIDKPALRLKIRSSIRSYLANER | failed
MDNMAIADRRRLRRKLTFWRVAAVLLLVVGAFGLYRFFWQGPQQSAKPHIARIEVSGLITDNTELLERLDKIAKSDNVKGLIVSISSPGGTTYGGERIFKVIRSVAEKKPVVSDVRTLAASAGYMIASAGDVIVAGETSITGSIGVIFQYPQLGQLMEKLGVSLQEIKSSPMKAEPSPFHEAPEEAKTMIRAMVMDSYGWFVDLVADRRKLPREEVLKLADGSIFTGRQALANKLVDTLGGEKEVRAYFETRGVAKDLPIVEWRAPSSNSPFALFSVAQIAKLLGYDDLIPFAGPSQLGADKLFLDGLVSVWQVEPRLEHHHHHH | not failed
MSQEAFENKLYANLEAVIDPELGVDIVNLGLVYDVTADENNNAVITMTMTSIGCPMAGQIVSDVKKVLSTNVPEVNEIEVNVVWNPPWSKERMSRMAKIALGIRD | not failed
MRLTVDQALAQAIAAHRSGQLQDAERLYRAILDAAPGHADANHNLGVLAVGVGKPQAGLSFLKAALEINPAQGQFWVSYIDALIAAGLPAAARDHLEQAKRRGLTGDAVERLEKRLDPASQPPQALLDSVVAQYRSGNLAAAESQAHALTLSFPNHELGWKVLGAVFSVTGRSEESLASMRQALSLNPQDAETFKNLAILLLKLKRAEEAEAACRSALALAPDYPQVHLTLGNALIDLARAAEAEESFRQAIRLKPDYSEAHCNLGCALKLSGRLTEAETCFRRAIQLNPADAQAHNNLGDVFKDLGRFADAEAFYRAAIGLKPEYLEAHSNLLLCLNYFETSSPDTYLAEAKQYGSVASAAATPKFSAWSIQPEPRRLRVGFISGDLNSHPVGYFSESVFQHLDRDRFELFAFPTTPKTDALTSRISPFFAGWCPIFGMDDHAAATAIHTQGVHVLVDLSGHTADNRLPVFAFRPAPVQASWLGYFATTGLPEMDYFLGDRYMVTETEQQRFTETLWRLPETWLCLAPHERSIPINPPPVLTNGFMTFGCLGNLSKMNGEVVALWSQILRAVPESKLLLKAKPFVDAQVVADIQARFAREGVSSDRLILEGPSSRAEYFETYNRIDLVLDTFPYPGGTTSVDALWMGVPVLTLAGDRFLARLGESIARNAGQSAWVARDRADYLAKAVAFASVRDVAHDRPALRRSVLTTPLFDPERFARDFGDTLWGMWSQGRSHPLRKDAPCRS | failed
MFQPLLDAFIESASIEKMVSKSPPPPLKIAVANWWGDEEIKEFKKSVLYFILSQRYAITLHQNPNESSDLVFSNPLGAARKILSYQNTKRVFYTGENESPNFNLFDYAIGFDELDFNDRYLRMPLYYAHLHYEAELVNDTTAPYKLKDNSLYALKKPSHHFKENHPNLCAVVNDESDLLKRGFASFVASNANAPMRNAFYDALNSIEPVTGGGSVRNTLGYKVGNKSEFLSQYKFNLCFENSQGYGYVTEKILDAYFSHTIPIYWGSPSVAKDFNPKSFVNVHDFNNFDEAIDYIKYLHTHPNAYLDMLYENPLNTLDGKAYFYQDLSFKKILDFFKTILENDTIYHNNPFIFYRDLHEPLISIDDLRVNYDDLRVNYDDLRVNYDDLRVNYDDLRVNYDDLRVNYDDLRVNYDDLRVNYDDLRVNYDDLRVNYDRLLQNASPLLELSQNTTFKIYRKAYQKSLPLLRTIRRWVKK | failed
MSNMQLDTLRRIVQEINSSVSLHDSLDIMVNQVADAMKVDVCSIYLLDERNQRYLLMASKGLNPESVGHVSLQLSEGLVGLVGQREEIVNLENASKHERFAYLPETGEEIYNSFLGVPVMYRRKVMGVLVVQNKQPQDFSEAAESFLVTLCAQLSGVIAHAHAVGNID | not failed
MNNPDLPYRQALECLSQKQYNFTEVRRLLTEAFSAGHPAAAFELAKHLMDADSPYQDREQGMEMLRIAAEQGHPYARYNLAYIQELEGAPPETLIPLYRPLAEEGLPEAQVRLMYLLYASRHFEEALEWAKTSAKNNNPHGQYLLAQYCRYGTPPDFETAHLLYRKSAAQGLPEAHWQLGLQYRFGQGTKVDTAQAVNHLRAAAQQGYIPAYTPLAELILPTAPDEAVHWFQQAAQENDPDAHAALADIYLQGKHLERNHKLALHHAEAAAAERHPEGLRILGDICRYGLGIAPDTEKARHYYRQAAEAGSLSAYQKLISDSALNHPDQYGGIKDSAIRRQRAERLYQKAQALHYGLQCAPEYAAALKLYTEAAELGHSKAQTNLGSMYYFGQGMTADYNEARKWFEKAAAKKDSMAFYNLACIHYSGHGVEPDKEKACRYLQEAINNGYGQKSVLQELLQQWQNAV | failed
MRAVIQRVKKSWVEVDGKVVGSINEGLNVFLGVRKGDTEEDIEKLVNKILNLRIFEDERGKFQYSVLDIKGEILVVSQFTLYANVKKGRRPSFEEAEEPKRAKELYEKFVDKIKESGLKVETGIFGAMMDVFIENWGPVTIIIDSREI | not failed
VKTPGTRYVTHKQLDEKLKNFVTKTEFKEFQTVVMESFAVQNQNIDAQGEQIKELQVEQKAQGKTLQLILEALQGINKRLDNLES | not failed
MLETDLEARMQILRESGFQESQGDDDTFAQRAEWFYQGRPLLLSLCLDLYNGYVTLLGRSSHQTRLKPTTSLPNQLLQDDDDCISDIDSVSEVSSEVESTLSFQQMKDPTAVSEKVDELVSQLVTASLDKEILKHELLHKDQQFHEASKTIELLKKFVMLLEMEKEVAVEENANLGYKLTSLLEENRELATEALFMKNEAVGLARCVLKMRDDHFHKVCILQNRIYSLQASRNSEPVSDKVSYGCFGLDKHKTKKKKENKTEEKKPGFKWLKKLNTINLFTKCSLNPSAAAPSCCTFDLPY | failed
PTPKTELVQKFRVQYLGMLPVDRPVGMDTLNSAIENLMTSSSKEDWPSVNMNVADATVTVISEKNEEEVLVECRVRFLSFMGVGKDVHTFAFIMDTGNQRFECHVFWCEPNAANVSEAVQAACSGPSSGIEGRGSSGSSGSSGSSGDAAVTPEERHLSKMQQNGYENPTYKFFEQMQN | not failed
MAQRVANIMKPFATGLVVGKFAPLHCGHEKLINTALAQCEELFIISYSVPEMPDCEPEKRLTWLQVRFPQATILVLTPELVARYNLPAIPHNDADADIHRHYVATLCLQILRCRPHAVFTAEDYGDGFANVLARRFAQPVEHVRMARPVGDEAPSGTLIRSDVHRYRYMLANDVYYSFVRRICLLGGESTGKSTLSKALADGLDTVYVAEFGRDYWEEKNGILTADDLLHIACEQVRREQQAEANHYLICDTSPLTTLFYALDQYGHAPQELHQLAEREYSLVVLCGAEFPFVQDGTRQGEVFRARQQVWYEQELSRRNIPYLSVSGPLQERVEQILRQLPD | failed
MDTAGIRLTPKEIVSKLNEYIVGQNDAKRKVAIALRNRYRRSLLDEESKQEISPKNILMIGPTGVGKTEIARRMAKVVGAPFIKVEATKFTEVGYVGRDVESMVRDLVDVSVRLVKAQKKSLVQDEATAKANEKLVKLLVPSMKKKASQTNNPLESLFGGAIPNFGQNNEDEEEPPTEEIKTKRSEIKRQLEEGKLEKEKVRIKVEQDPGALGMLGTNQNQQMQEMMNQLMPKKKVEREVAVETARKILADSYADELIDQESANQEALELAEQMGIIFIDEIDKVATNNHNSGQDVSRQGVQRDILPILEGSVIQTKYGTVNTEHMLFIGAGAFHVSKPSDLIPELQGRFPIRVELDSLSVEDFVRILTEPKLSLIKQYEALLQTEEVTVNFTDEAITRLAEIAYQVNQDTDNIGARRLHTILEKMLEDLSFEAPSMPNAVVDITPQYVDDKLKSISTNKDLSAFIL | failed
MRVVIVGAGKVGYSLAQYLTQEDHEVIVIEENEERRAIVQNTLDVMTISGNGASPRVLLDPEVRKAELMIAVTDMDEVNMIACMAAKQVGIKRTIARVRNQEYAEKDKIKFNEALGIDLTINPEMVTALEIKRILLTPSALDVEDFAGDRVRMIEVKMPSDSKLINTSLTQLTLPSHTLVAGILRNGRMLIPHGSDMLLPNDCVFFVGEVSAIKKIEDHFTVRKSKVERVLIIGAGRIGRHLAMILEKSDIAVKIIDKDMERCQELAESLDEGLVLCGEGTDIELLTEEGVGEADAVLCLTDDDKLNLLIALLAKHLGAPRTFVRVGRPDYISLMEKVGVDVVLSPRILTAGVILRYVRRSDVVSVSLLEGAKAEAMEIIIPPLSQVTHKKLKDAKLPKNSLIGSIVRDEEIIIPNGETVLKPGDRAIIFALPDTVPTVVRLFENKLESK | failed
MVKKLFILISYGVIAALIYLYGEWLLEWIQQGGARFIFLTVIIATLLALFPIIPYPIIGGVLGAAYGPFLGSAVTWIGSSLASIIMFMFVRYGYQDWGLSLIRRSDLVTKVTAMFEKNAFMAIFITRLIPIIPSIIVNIYSALSRVSFINYSIASSLGKVPSMILFAVVGNSIATNPSQLLWIALFYSSFLLIVWIGYRAWQRVALQKQANI | failed
MRKNILITGVHGYIGNALKDKLIEQGHQVDQINVRNQLWKSTSFKDYDVLIHTAALVHNNSPQARLSDYMQVNMLLTKQLAQKAKAEDVKQFIFMSTMAVYGKEGHVGKSDQVDTQTPMNPTTNYGISKKFAEQALQELISDSFKVAIVRPPMIYGAHCPGNFQRLMQLSKRLPIIPNINNQRSALYIKHLTAFIDQLISLEVTGVYHPQDSFYFDTSSVMYEIRRQSHRKTVLINMPSMLNKYFNKLSVFRKLFGNLIYSNTLYENNNALEIIPGKMSLVIADIMDETTTKDKA | failed
MDAKEVSAHWESNAETWTMLSRAGHDRYRDTLNTPAFLAMLPPVAGLKGLDLGCGEGTNTRTVARLGASMTGLDIAPTFLRHARDAERRDPLGIDYVLGDGLTLPFADRSFDFVTAFMSMMDMVDQAAVLREVARVLKPGGFLQFSILHPCFVPPTRRNIRDAEGAPVAVEVADYFDESDGRVERWLFSSISAEQQAALTPFAVPRFHRTLSTWVAMIVGARLSIEAFGEPRASEEVAAAEPIVADTRVAPIFLHVLAKRPTTP | failed
MKILVVSGFLGAGKTTFIRTLAERTKKDFAVMENEYGAVNVDGDLLEQTNDLNIWELTEGCICCSMQNDFATSILTIANTVDPEYLIVEPTGVGMLSKIIENIQKIEYERITLLEPLTILDGTMYDRCMFEFSEICEDQIQSAGRILVSKMEYAAENERCSLKQKLIALNPEAEICVSHYTEQGDDWWASLLTSYLDKEIPMKEERELDLENLGLTEASLQSEQELILFLQGVVSGVFGDICRAKGYLPAGNGWLRFDVTDRTYSVTGIDTMPEAKAIFIGRQLKRNWLREVLQKELYVEVSKRAIRPMRKRSEVLEHHHHHH | failed
MDKPALPIYLVVHFSYGDVTFPLQGRSYWTVGRSQDNDLVIRDNCISRNHAILQATEEDTFLLIDLGSRNGTFVNGRRVSVPIAIQDQDKITFGKTEAQFYSDQNGTPSGLLRNPAEWDTQTNVLHERRLITVLVADMRNFTGMAQQVEEELLSMLIGNWFRQAGHILREAGSWVDKYIGDAVMAIWFHGYNEATPAEIIQILHAVNRLQAMTAKLNQKYELPFPLRIGTGINTGYAMVGNTGSGDHPDYTAIGDTVNAAFRLESATKQAHFDLAMSEKTFSYLQDLPQWSATVQQHTIELKGYTNPITIYGLPFATLGTLLDHTSLEDTTPASEGP | failed
